Assay results as given in US5593867, “Fluorerscence polarization detection of nucleic acid amplication” (Becton, Dickinson and Company).

Assays:
EcoRI = EcoRI (UniProt P00642 P00642:2-277); test: FP; no enhancement of FP change without recognition site; EDTA buffer, 37 C; settings: tags: New England BioLabs; chain copies: 2
EcoRI (Gln 111) = EcoRI (Gln 111) (UniProt P00642 P00642:2-277, Gln111 (cleavage-deficient; parent residue not stated)); test: as above; settings: chain copies: 2

B1: SEQ7/SEQ9 duplex lacking EcoRI site (dsDNA)
DNA 1: ATCCGTATGGTGGATAACGTCTTTCA
DNA 2: TGAAAGACGTTATCCACCATACGGAT
**Q.** Does B1 bind (EcoRI)?
**A.** no binding

**Q.** Does B1 bind (EcoRI (Gln 111))?
**A.** no binding
